Values joined by “and” are separate entries in the source; they are usually repeats but may differ in a detail not shown here. Identical values can stand only once.
Columns and labels:
[1] = biological target: secreted form of human neprilysin, mutant F563I (human); assay: enzyme kinetics, competitive (alternate substrate) inhibition of Glut-Ala-Ala-Phe-MNA hydrolysis, Dixon plot; insulin B chain varied from 1 to 40 µM against hydrolysis of the fluorogenic substrate Glut-Ala-Ala-Phe-MNA by NEP or mutant; Ki from ID50 = Ki(1+[S]/Km); 37°C, 20 mM MES buffer, pH 6.5
[2] = biological target: secreted form of human neprilysin, mutant F563M (human); assay: as above
[3] = biological target: secreted form of human neprilysin, mutant F563V (human); assay: as above
[4] = biological target: secreted form of human neprilysin (shNEP), wild type (human) (UniProt P08473); assay: as above
[5] = biological target: secreted form of human neprilysin, mutant F563L (human); assay: as above
insulin B chain [6] = assay: Time course of product peak accumulation from insulin B chain; format: biochemical; conditions: 15 µM insulin B chain, 37°C, 20 mM MES, pH 6.5; 0-180 min, HPLC peak area 214 nm, linear phase
Source text: As a representative of the NEP^F563 and NEP^S546 mutants, we compared the cleavage profile of NEP^F563L and NEP^S546E to that of NEP using time course experiments, Figure 2 . By adjusting the amount of NEP mutant used, the rate of hydrolysis of insulin B chain by all NEP forms was virtually identical. […] Since rates were based on peak areas measured at 214 nm, which in turn is dependent on both the number of peptide bonds and the number of aromatic residues within a given peptide, only the observed rates of change for a particular peptide product can be compared between enzyme forms. A comparison of the rate of change of different peaks within the same enzyme form or between enzyme forms is not valid under our conditions of analysis.
(§1) Cleavage of physiological peptides was measured via reverse phase high performance liquid chromatography (HPLC) following incubation of the purified NEP or its mutants with 15 µM insulin B chain (Sigma Aldrich), 24 µM Aß1–40 (Anaspec), or 64 µM leu-ENK (Sigma) in 100 µL of 20 mM MES, pH 6.5, at 37°C. Reactions were run in triplicate. HPLC was carried out in a Vydac C4 column using a linear gradient from 0.1% trifluoroacetic acid (TFA) in 95% water, 5% acetonitrile to 0.1% TFA in 50% acetonitrile/water at a flow rate of 1 mL/min. Peptides and hydrolysis products were detected at 214 nm and quantified by measuring peak areas. Peptides obtained from HPLC were analyzed on an Applied Biosystems 4800 MALDI TOF/TOF Proteomics Analyzer at the University of Kentucky Proteomics core. This facility is supported in part by grant P20RR020171 from the NIH/NCRR.

leu-ENK [7] = assay: Dual substrate assay: leu-ENK hydrolysis in presence of insulin B chain; format: biochemical; conditions: 15 µM insulin B chain and 64 µM leu-ENK together, 37°C, 20 mM MES buffer, pH 6.5
Experimental: (§2) The rate of cleavage of a substrate mixture is determined by both the kcat for that substrate as well by the affinity for the substrate. […] This is expected, given that each peptide acts as a competitive inhibitor of the other. […] That is the ratio for leu-ENK/insulin B chain cleavage is 3 for NEP^S546E compared to 6 for wild-type NEP.
as §1

insulin B chain [8] = assay: Rate of insulin B chain hydrolysis (HPLC); format: biochemical; conditions: 15 µM insulin B chain, 37°C, 20 mM MES buffer, pH 6.5; disappearance of substrate by HPLC; at least triplicate
Experimental: as §1
(§3) Statistical analysis comparing wild-type NEP and its mutants was performed with Prism 4 software using a two-tailed paired t-test with a 95% confidence interval.

insulin B chain [9] = assay: Insulin B chain as alternate substrate (competitive) inhibitor of Glut-Ala-Ala-Phe-MNA hydrolysis (Dixon plot); format: biochemical; conditions: insulin B chain 1 to 40 µM as competitive inhibitor of Glut-Ala-Ala-Phe-MNA hydrolysis by the enzyme form, 37°C, 20 mM MES, pH 6.5, ID50 converted to Ki
Experimental: (§4) Kinetic constants for NEP and its mutants were obtained using the assay conditions noted above, but with Glut-Ala-Ala-Phe-MNA varied from 20 to 500 µM. Typically 12 data points were obtained. The data were fit to the Michaelis-Menten equation using Prism4 software. The Ki for insulin B chain was obtained by measuring the rate of Glut-Ala-Ala-Phe-MNA hydrolysis in the presence of varying concentrations of insulin B chain from 1 to 40 µM. Data were fit to a Dixon plot (1/rate versus [insulin B chain]) using Prism4 software and the ID50 obtained as the –x intercept, where ID50 corresponds to the concentration of insulin producing 50% inhibition. The actual Ki was obtained from the equation: ID50 = Ki (1+ [Glut-Ala-Ala-Phe-MNA]/KmGlut-Ala-Ala-Phe-MNA), [33].

insulin B chain [10] = assay: Dual substrate assay: insulin B chain hydrolysis in presence of leu-ENK; format: biochemical; conditions: 15 µM insulin B chain and 64 µM leu-ENK together, 37°C, 20 mM MES buffer, pH 6.5
Experimental: as §2, §1

Aß1–40 [11] = assay: Time course of product peak accumulation from Aß1–40; format: biochemical; conditions: 24 µM Aß1–40, 37°C, 20 mM MES, pH 6.5; 0-360 min, HPLC peak area, linear phase
Experimental: Similar to the analysis conducted with insulin B chain, the linear rate of product accumulation was determined for each peak and normalized to the amount of protein in the reaction, Table 7 . Unlike the hydrolysis of insulin B chain, the hydrolysis of Aß1–40, even at the earliest time points, produced products resulting from multiple cleavage events. Out of the 12 identified product peaks, only 3 could be produced by a single cleavage. Rates for all cleavages were calculated and are given in Figure 4, B–D , but only the three putative primary cleavage sites can be compared.
as §1

[12] = system: leu-ENK and insulin B chain; assay: Dual substrate assay: substrate preference leu-ENK versus insulin B chain; format: biochemical; conditions: ratio of rates, 15 µM insulin B chain and 64 µM leu-ENK together
Experimental: as §2, §1

[13] = Hydrolysis of synthetic substrate Glut-Ala-Ala-Phe-MNA by NEP and mutants (fluorogenic); format: biochemical; conditions: 37°C, 20 mM MES buffer, pH 6.5
Experimental: Reactions of 400 µl contained 100 µM Glut-Ala-Ala-Phe-MNA, 1 µg of aminopeptidase and 15 to 100 ng of NEP or mutant NEP depending on their activity in 20 mM MES buffer, pH 6.5. Activity was monitored with a Spectra Max Gemini XS plate reader using an excitation wavelength of 340 nm and an emission wavelength of 425 nm.
as §4

leu-ENK [14] = assay: Rate of leu-ENK hydrolysis (HPLC); format: biochemical; conditions: 64 µM leu-ENK, 37°C, 20 mM MES buffer, pH 6.5; disappearance of substrate by HPLC; at least triplicate
Experimental: as §1, §3

Aß = conditions: transgenic mice; cited from earlier work
Source text: Because of its multiple targets, NEP has been the focus of numerous studies attempting to modulate its activity for therapeutic purposes. One such target is the use of NEP to reduce Aß peptide levels in Alzheimer's disease, since the oligomerization of Aß has been linked to the etiology of this disease. […] In yet another application inhibitors of NEP were developed to block its “enkephalinase” activity to increase the concentra ...

Aß1–40 [15] = assay: Rate of Aß1–40 hydrolysis (HPLC); format: biochemical; conditions: 24 µM Aß1–40, 37°C, 20 mM MES buffer, pH 6.5; disappearance of substrate by HPLC; at least triplicate
Experimental: as §1, §3

## insulin B chain (from UniProt P01317 25-54) (peptide)
[1]
  Ki: 2500 nM
[2]
  Ki: 1200 nM
[3]
  Ki: 1000 nM
[4]
  Ki: 1900 nM
[5]
  Ki: 1500 nM

B1: NEP: secreted form of human NEP (shNEP) expressed as a C-terminal hexahistidine fusion protein (protein, UniProt P08473 52-750, looked up)
extracellular domain: YDDGICKSSDCIKSAARLIQNMDATTEPCTDFFKYACGGWLKRNVIPETSSRYGNFDILRDELEVVLKDVLQEPKTEDIVAVQKAKALYRSCINESAIDSRGGEPLLKLLPDIYGWPVATENWEQKYGASWTAEKAIAQLNSKYGKKVLINLFVGTDDKNSVNHVIHIDQPRLGLPSRDYYECTGIYKEACTAYVDFMISVARLIRQEERLPIDENQLALEMNKVMELEKEIANATAKPEDRNDPMLLYNKMTLAQIQNNFSLEINGKPFSWLNFTNEIMSTVNISITNEEDVVVYAPEYLTKLKPILTKYSARDLQNLMSWRFIMDLVSSLSRTYKESRNAFRKALYGTTSETATWRRCANYVNGNMENAVGRLYVEAAFAGESKHVVEDLIAQIREVFIQTLDDLTWMDAETKKRAEEKALAIKERIGYPDDIVSNDNKLNNEYLELNYKEDEYFENIIQNLKFSQSKQLKKLREKVDKDEWISGAAVVNAFYSSGRNQIVFPAGILQPPFFSAQQSNSLNYGGIGMVIGHEITHGFDDNGRNFNKDGDLVDWWTQQSASNFKEQSQCMVYQYGNFSWDLAGGQHLNGINTLGENIADNGGLGQAYRAYQNYIKKNGEEKLLPGLDLNHKQLFFLNFAQVWCGTYRPEYAVNSIKTDVHSPGNFRIIGTLQNSAEFSEAFHCRKNSYMNPEKKCRVW
modifications: extracellular domain C-terminal His6 tag
notes: secreted form of human NEP (shNEP) expressed as a C-terminal hexahistidine fusion protein
Insulin B chain [6]
  Rate of accumulation of peak 1–5 (single cleavage H^5-L^6): 59 Δarea/min/ng
  Rate of accumulation of peak 1–10 (single cleavage H^10-L^11): 163 Δarea/min/ng
  Rate of accumulation of peak 1–11 (single cleavage L^11-V^12): 88 Δarea/min/ng
  Rate of accumulation of peak 1–14 (single cleavage A^14-L^15): 167 Δarea/min/ng
  Rate of accumulation of peak 1–16 (single cleavage Y^16-L^17): 31 Δarea/min/ng
  Rate of accumulation of peak 15–23 (two cleavages A^14-L^15, G^23-F^24): 23 Δarea/min/ng
  Rate of accumulation of peak 15–30 (single cleavage A^14-L^15): 135 Δarea/min/ng
  Rate of accumulation of peak 17–24 (two cleavages Y^16-L^17, F^24-F^25): 33 Δarea/min/ng
  Rate of accumulation of peak 17–30 (single cleavage Y^16-L^17): 171 Δarea/min/ng
  Rate of accumulation of peak 24–30 (single cleavage G^23-F^24): 268 Δarea/min/ng
leu-ENK [7]
  leu-ENK hydrolysis rate, dual substrate assay: 1.16 ± 0.06 pmol/min/ng
leu-ENK [7]; numbers in parenthesis
  leu-ENK hydrolysis, activity relative to the uninhibited value: 0.61
Insulin B chain [8]
  Rate of hydrolysis of Insulin B Chain: 0.86 ± 0.13 pmol/min/ng
Insulin B chain [9]
  Ki: 1900 ± 200 nM
Insulin B chain [10]
  Insulin B Chain hydrolysis rate, dual substrate assay: 0.20 ± 0.04 pmol/min/ng
Insulin B chain [10]; numbers in parenthesis
  Insulin B Chain hydrolysis, activity relative to the uninhibited value: 0.23
Aß1–40 [11]
  Accumulation rate of peak Aß 1–9 (single cleavage G^9-Y^10): 7 Δarea/min/ng
  Accumulation rate of peak Aß 1–16 (single cleavage K^16-L^17): 22 Δarea/min/ng
  Accumulation rate of peak Aß 1–17 (single cleavage L^17-V^18): 75 Δarea/min/ng
  Accumulation rate of peak Aß 4–9 (dual cleavages A^3-F^4, G^9-Y^10): 10 Δarea/min/ng
  Accumulation rate of peak Aß 4–16 (dual cleavages A^3-F^4, K^16-L^17): 7 Δarea/min/ng
  Accumulation rate of peak Aß 4–17 (dual cleavages A^3-F^4, L^17-V^18): 9 Δarea/min/ng
  Accumulation rate of peak Aß 10–16 (dual cleavages G^9-Y^10, K^16-L^17): 4 Δarea/min/ng
  Accumulation rate of peak Aß 10–17 (dual cleavages G^9-Y^10, L^17-V^18): 18 Δarea/min/ng
  Accumulation rate of peak Aß 12–17 (dual cleavages E^11-V^12, L^17-V^18): 3 Δarea/min/ng
  Accumulation rate of peak Aß 20–28 (dual cleavages F^19-F^20, K^28-G^29): 11 Δarea/min/ng
  Accumulation rate of peak Aß 20–29 (dual cleavages F^19-F^20, G^29-A^30): 16 Δarea/min/ng
  Accumulation rate of peak Aß 20–30 (dual cleavages F^19-F^20, A^30-I^31): 34 Δarea/min/ng
[12]
  Ratio leu-ENK insulin B chain: 6 and 5.8
[13]; 100 µM Glut-Ala-Ala-Phe-MNA, fluorescence ex 340 nm, em 425 nm
  Specific Activity (Glut-Ala-Ala-Phe-MNA cleavage): 45.9 ± 2.5 pmol/min/ng
[13]; Glut-Ala-Ala-Phe-MNA 20 to 500 µM, Michaelis-Menten fit
  Km: 51 ± 11 µM
leu-ENK [14]
  Rate of hydrolysis of leu-ENK: 1.90 ± 0.23 pmol/min/ng
Aß
  Effect of NEP expression on cognitive deficits typically attributed to AD: ameliorates cognitive deficits
  Effect of NEP expression on level of Aß: decreases the level of Aß
Aß1–40 [15]
  Rate of hydrolysis of Aß1–40: 198 ± 12 fmol/min/ng

From article PMC3285688, “Active Site Mutations Change the Cleavage Specificity of Neprilysin” (PLoS ONE, 2012)
